One assay deals with CMKLR1. Conditions: cited from earlier work. The source says: The apparent contradictory functional roles of CMKLR1 in inflammation may be associated with the spatiotemporal regulation of the inflammation processes in cells. It is possible that in the early stage of inflammation, the CMKLR1 signaling is mainly pro-inflammatory by promoting chemotaxis and activation of DCs and macrophages, whereas at the late stage of inflammation, CMKLR1 activation can induce pro-resolving pathways to dampen inflammation. Another possibility for the differing effects of CMKLR1 signaling on inflammation is that different chemerin isoforms may activate CMKLR1 to induce dis ... || The potential roles of CMKLR1 signaling in inflammation may provide promising new opportunities for developing anti-inflammatory drugs. […] Nevertheless, the only commercially a ...

For assay [1], the system named is primary human macrophages. The assay is described as follows: Macrophage differentiation assay, surface markers by flow cytometry (MFI fold-change). Conditions: 72 hours, 10 ng/mL (each), vs M0, n = 4 donors. A general note: A flow cytometer gives signals particle by particle.
Experimental: Monocytes were enriched from human PBMC by CD14 beads positive selection (Miltenyi Biotec) and cultured in IMDM supplanted with 10% human AB serum (Omega Scientific, Cat# HS-20) for 7 days for them to differentiate to macrophages.
Differentiated macrophages were then replated to low-bind plate at 0.15 million cells per 24-well plate, in 500 μl medium overnight before stimulated with various condition. Human macrophage medium was used as M0 reference culture condition, while 10 ng/ml IFNg plus 10 ng/ml LPS supplement were used as M1 reference, and 10 ng/ml IL-10 supplement used as M2 reference. […] Data were acquired on Cytek Aurora flowcytometry, analysis on Flowjo. MFI quantifications were normalized to M0 condition and statistically analyzed by 2-way ANOVA, with Dunnett’s multiple comparisons test; all groups were pair analyzed with M0 group as reference.

Regarding `C[N+](C)(C)CCC(=O)c1cccc2ccccc12.[I-]` [α-NETA], the “potency against CMKLR1” value in the assay on CMKLR1 (antagonist, ref [30]) was “low micromolar potency”. Turning to “chemerin15: synthetic peptide corresponding to the 141–155 amino acid segment of chemerin (AGEDPHSFYFPGQFA; UniProt Q99969 141-155, looked up, fragment)”, the “agonism and anti-inflammatory effects” value in the assay on CMKLR1 (CMKLR1, ref [9]) is “stable agonists of CMKLR1 that induce anti-inflammatory effects”.

B1: IL-10: 10 ng/ml IL-10 supplement used as M2 reference (protein, UniProt P22301 19-178, looked up)
Interleukin-10: SPGQGTQSENSCTHFPGNLPNMLRDLRDAFSRVKTFFQMKDQLDNLLLKESLLEDFKGYLGCQALSEMIQFYLEEVMPQAENQDPDIKAHVNSLGENLKTLRLRLRRCHRFLPCENKSKAVEQVKNAFNKLQEKGIYKAMSEFDIFINYIEAYMTMKIRN
B1: in assay [1], the “CD86 expression in words” value is on record as “down-regulation”, the “CD163 expression in words” value is on record as “up-regulation” and the “CD206 expression in words” value is given as “up-regulation”.
